± gives the standard error. This sample holds only a part of the variants without activity.
B1: glmS ribozyme (parent)
chain: AUAAAAGCGCCAGAACUACAGAAAUGUAGUUGACGAGGAGGAGGUUUAUCGAAUUUUCGGCGGAUGCCUCCAAA

Variants of: B1
Assay: self-cleavage kobs at 2500 uM GlcN6P; higher = faster cleavage; RNA array
Conditions: with glucosamine-6-phosphate
How it was run: (§1)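 Barcoded ribozyme variants, transcribed in situ by E. coli RNA polymerase on sequenced MiSeq chips, were followed via a hybridised Cy3 probe at 37 °C. Glucosamine-6-phosphate ranged from 40 μM to 10 mM in HEPES/KCl/Mg(OAc)2 buffer. kobs came from decay fits to per-tile medians, and kcat and KM from weighted Michaelis–Menten fits.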

Point of comparison: G59C C61U C67A, “self-cleavage kobs at 2500 uM GlcN6P” value 4.78e-05 ± 1.7e-05 s⁻¹. Against it:
- G37U A52U C71U — lower, < 1e-05 s⁻¹
- G40U C50A U55C — lower, < 1e-05 s⁻¹
- G44C A48G — lower, < 1e-05 s⁻¹
- G37U G40U U55C — lower, < 1e-05 s⁻¹
- G38A G41A C50G C61U — lower, < 1e-05 s⁻¹
- U45A A52U C71U — 5.1-fold higher, 0.000244 ± 9.4e-05 s⁻¹
- A52G U54C C70U C71G — within error, 7e-05 ± 2.3e-05 s⁻¹
- A39G A42C G43A — lower, < 1e-05 s⁻¹
- A39G A42U C68U — 21-fold higher, 0.000999 ± 0.00036 s⁻¹
- G40C G43U U56A — lower, < 1e-05 s⁻¹
- A42U G59U C70G — lower, < 1e-05 s⁻¹
- C58G C67A C70U C71U — within error, 7.14e-05 ± 2.7e-05 s⁻¹
- U45G U46G A52G — within error, 5.59e-05 ± 2.7e-05 s⁻¹
- U46G G63U C70A — lower, < 1e-05 s⁻¹
- G37U U56C G60C C61G — lower, < 1e-05 s⁻¹
- G38C G41C C61A C71G — lower, < 1e-05 s⁻¹
- A52G U57C C67U — 3.4-fold higher, 0.000161 ± 7.8e-05 s⁻¹
- G40U U57A C61G — lower, < 1e-05 s⁻¹
- G44A U49C — lower, < 1e-05 s⁻¹
- U56G G60U G63C — lower, < 1e-05 s⁻¹
- U45C A48C U65G C70G — lower, < 1e-05 s⁻¹
- G38C C58G G60U — lower, < 1e-05 s⁻¹
- U69C C70U C71G — within error, 3.82e-05 ± 1.3e-05 s⁻¹
- A39C G60C C67G — lower, < 1e-05 s⁻¹
- G63C G66C C67G — lower, < 1e-05 s⁻¹
- U46C G66A C70U — 33-fold higher, 0.00157 ± 0.00039 s⁻¹
- G41A A52C C67G C71A — lower, < 1e-05 s⁻¹
- A39C A53U C67A — within error, 6.25e-05 ± 1.6e-05 s⁻¹
- U45G G63U C70G — lower, < 1e-05 s⁻¹
- G66U C68U C71G — within error, 5.06e-05 ± 2.1e-05 s⁻¹
- A48C G63A C71A — lower, < 1e-05 s⁻¹
- U49C U55A G62C — lower, < 1e-05 s⁻¹
- G37U G41U U47G G63U — lower, < 1e-05 s⁻¹
- U46A C58A C61U — lower, < 1e-05 s⁻¹
- A39C C67G C70A — lower, < 1e-05 s⁻¹
- G41U U45C U56G — within error, 7.1e-05 ± 3.2e-05 s⁻¹
- G44U G62C G66A C67G — lower, < 1e-05 s⁻¹
- A53C U57G C67U — within error, 8.03e-05 ± 2.5e-05 s⁻¹
- A39G G51A C68U — lower, < 1e-05 s⁻¹
- A39U A48U C67G — 3.6-fold higher, 0.00017 ± 6.1e-05 s⁻¹
- U45G U49A U55C — lower, < 1e-05 s⁻¹
- G40A G62U C70G — lower, < 1e-05 s⁻¹
- A53U U56G U65G — 19-fold higher, 0.000913 ± 0.00018 s⁻¹
- G59A U69C C70U — lower, < 1e-05 s⁻¹
- U46C G60A C70G — lower, < 1e-05 s⁻¹
- U45A G51U U54G G63C — lower, < 1e-05 s⁻¹
- G38A C58U C71U — lower, < 1e-05 s⁻¹
- G40C U47G G51A — lower, < 1e-05 s⁻¹
- G38U A42U U49A — lower, < 1e-05 s⁻¹
- U45G A48C — within error, 5.95e-05 ± 2.2e-05 s⁻¹
- U45G C50U U55A — lower, < 1e-05 s⁻¹
- G40A A53G C58A — 2.6-fold higher, 0.000125 ± 3.1e-05 s⁻¹
- U49C G63U G66C — lower, < 1e-05 s⁻¹

Variants of: B1
Assay: self-cleavage kobs at 10000 uM GlcN6P; higher = faster cleavage; RNA array
Conditions: with glucosamine-6-phosphate
How it was run: as §1

Point of comparison: U45G A48C, “self-cleavage kobs at 10000 uM GlcN6P” value 0.000117 ± 2.2e-05 s⁻¹. Against it:
- G9A U30A C70A — lower, < 1e-05 s⁻¹
- A6G A42U G59U — lower, < 1e-05 s⁻¹
- G9U U30A U56G — lower, < 1e-05 s⁻¹
- A6C U31A A64C C71G — lower, < 1e-05 s⁻¹
- C8U U46G G66C C70G — within error, 9.08e-05 ± 2.6e-05 s⁻¹
- C10A A36C C50U G59C — lower, < 1e-05 s⁻¹
- C8U U54A U55A C67G — 4-fold higher, 0.000463 ± 0.00023 s⁻¹
- C8U U54A U69A — 9.8-fold higher, 0.00115 ± 0.00055 s⁻¹
- A6C C34A G37U — lower, < 1e-05 s⁻¹
- A6U U55A C70U — 2.2-fold higher, 0.000254 ± 6.5e-05 s⁻¹
- A52G U57C C67U — within error, 0.000116 ± 2.5e-05 s⁻¹
- A6G C11U C34A — lower, < 1e-05 s⁻¹
- G9A A33U G51A A52U U55A — lower, < 1e-05 s⁻¹
- A6U U45G C67A — 2.5-fold lower, 4.59e-05 ± 1.8e-05 s⁻¹
- G9A A33C C50G A52G G59U C71A — 2.2-fold lower, 5.24e-05 ± 2e-05 s⁻¹
- C10A U31C G38U A48C — lower, < 1e-05 s⁻¹
- G7U G26U A52C — lower, < 1e-05 s⁻¹
- G7U G13U C16U C50G U56G G66U — 3.5-fold lower, 3.32e-05 ± 1.5e-05 s⁻¹
- A39U A48U C67G — within error, 0.000104 ± 1.6e-05 s⁻¹
- G9A A36U U65C — lower, < 1e-05 s⁻¹
- G7U C8U A12G C70G — 2.7-fold lower, 4.36e-05 ± 1.9e-05 s⁻¹
- C10G A48G G51C — lower, < 1e-05 s⁻¹
- G9U C34U A36C G62C — lower, < 1e-05 s⁻¹
- A6C C8U A36C G37U — lower, < 1e-05 s⁻¹
- G9A C10G U69G — 5.1-fold higher, 0.000596 ± 0.00021 s⁻¹
- C8U G29U G32C G35C A36U C50A A52U — lower, < 1e-05 s⁻¹
- G7A C11U C61U U65G C68A — 2.7-fold higher, 0.000318 ± 0.0001 s⁻¹
- A6U A15G G43A C68G — lower, < 1e-05 s⁻¹
- A1U U2G A3G A5U G44A — 2.9-fold lower, 4.04e-05 ± 1.7e-05 s⁻¹
- G7A C16U — 5-fold lower, 2.32e-05 ± 1.2e-05 s⁻¹
- A6U A15C A48C A64U — lower, < 1e-05 s⁻¹

From the supplement of paper PMC7125110
